Source: the Human Domainome abundance scans (Beltran et al. 2025)

B1: Homeobox protein cut-like 1, residues 548 to 629; numbered along this chain, P39880 (parent)
chain: GEEMDTAEIARQVKEQLIKHNIGQRIFGHYVLGLSQGSVSEILARPKPWNKLTVRGKEPFHKMKQFLSDEQNILALRSIQGR

Variants of: B1
Assay: abundance fitness (aPCA) (normalised: wild type 0, dead -1); higher = more abundant; growth selection in yeast, the domain comes from the species named
Conditions: Homo sapiens

Abundance fitness, by site and new letter:
G23: K 0.012, L -0.081, M -0.12, N 0.105, P 0.08, Q 0.043, R -0.068, S 0.023, T -0.013, V -0.196, W -0.268, Y -0.108
Q24: A -0.129, C -0.108, D -0.091, E 0.053, F -0.094, G -0.386, H 0.021, I -0.032, M -0.032, N -0.069, P -0.079, R -0.159, S -0.118, T -0.069, V 0.043, W 0.025, Y -0.013
R25: A 0.102, D 0.138, E 0.158, F -0.096, G 0.082, H 0.059, I -0.122, K 0.022, L -0.192, M -0.079, N 0.017, P -0.068, Q 0.019, S 0.078, T 0.036, V -0.088, W -0.072, Y -0.003
I26: A -0.056, C -0.058, D 0.023, F -0.078, G -0.547, H -0.056, K -0.152, L -0.002, M -0.082, N -0.261, P -0.517, R -0.401, S -0.14, T 0.009, V 0.034, W -0.083, Y -0.107
F27: A -1.01, C -1.03, D -0.862, E -0.906, G -0.894, H -1.14, I -0.8, K -0.99, L -0.47, M -0.857, N -0.787, P -0.861, Q -0.747, R -0.884, S -0.906, T -0.914, V -0.815, W -0.572, Y -1.15
G28: A 0.018, C -0.223, D -0.349, E -0.188, F -0.329, H -0.485, I -0.233, K -0.745, M -0.241, N -0.259, P -0.726, Q -0.457, R -0.52, S -0.05, T -0.47, V -0.452, W -0.764, Y -0.374
H29: D -0.036, E 0.06, F -0.15, G -0.357, K 0.022, L -0.1, M -0.052, N -0.012, P -0.621, Q 0.038, R -0.051, S -0.081, T -0.022, W -0.102, Y -0.125
Y30: A -0.082, C -0.065, D -0.337, E -0.034, F -0.126, G -0.552, H 0.014, I -0.024, K -0.091, L -0.111, M -0.122, N -0.282, P -0.742, Q -0.099, R -0.201, T -0.147, V -0.053, W -0.184
V31: C -0.179, D -0.839, E -0.681, G -0.766, H -0.988, K -1.04, L -0.391, M -0.431, N -0.713, Q -0.882, R -0.947, S -0.806, T -0.488, W -0.133, Y -0.2
L32: A -0.732, C -0.281, D -0.773, E -0.792, F -0.988, G -0.839, H -0.723, I -0.562, K -0.986, M -0.317, N -0.768, P -0.894, Q -0.791, R -0.943, S -0.793, T -0.741, V -0.41, Y -1.01
G33: A -0.341, C -0.4, D -0.268, E -0.312, F -0.883, H -0.111, I -1.15, K -0.217, L -0.822, N -0.106, P -0.882, Q -0.221, R -0.351, S -0.297, T -0.798, V -0.895, W -0.969, Y -1.16
L34: A -0.228, C -0.047, D -0.274, F -0.167, G -0.461, I -0.052, K -0.346, M 0.09, N -0.362, P -0.519, Q -0.173, R -0.393, S -0.349, T -0.213, V -0.151, W -0.264, Y -0.26
S35: A -0.112, C -0.086, D 0.154, F -0.126, G -0.039, H -0.238, I -0.308, K -0.035, L -0.384, M -0.278, N -0.081, P 0.062, Q -0.029, R -0.209, V -0.236, W -0.311, Y -0.298
Q36: A 0.021, C -0.157, D 0.056, E 0.055, H -0.017, I -0.059, K 0.025, L 0.008, M -0.104, N -0.048, P 0.071, R -0.049, T -0.034, V -0.025, W -0.039, Y -0.045
G37: A 0.037, C -0.013, E 0.136, F -0.075, H 0.006, I -0.17, K 0.091, L -0.022, M 0.002, N -0.016, P -0.084, Q 0.092, R 0.029, S 0.024, T 0.063, V -0.051, W -0.057, Y -0.034
S38: A 0.072, C 0.025, D 0.125, E 0.141, F -0.181, G -0.049, H -0.031, I -0.008, K 0.061, L -0.005, M 0.11, N -0.027, P -0.079, Q 0.113, R -0.711, T -0.005, V 0.097, W -0.273, Y -0.112
V39: A -0.177, C -0.025, D -0.732, E -0.456, F -0.165, G -0.725, H -0.844, I -0.212, K -0.898, L -0.101, M -0.249, N -0.697, P -0.642, Q -0.676, R -0.915, S -0.316, T 0.086, W -0.33, Y -0.574
S40: A 0.057, C -0.063, D 0.078, E 0.13, F -0.162, G -0.06, H 0.123, I -0.117, K 0.032, L -0.101, M -0.051, N -0.018, P -0.258, Q 0.017, T 0.055, W -0.131, Y -0.102
E41: A -0.13, C -0.219, D -0.061, F -0.758, G -0.293, H -0.353, I -0.477, K -0.727, L -0.345, M -0.377, N -0.206, Q -0.204, R -0.851, S -0.265, T -0.243, V -0.433, W -0.522, Y -0.412
I42: A -0.36, C -0.253, D -0.723, E -0.707, F -0.242, K -0.747, L -0.013, M 0.004
